Laboratory results taken from article PMC10397247.
Read-outs that look alike come from different tables or passages of the source.

What was measured:
zCON9_D = target: T1, zCON9_D; test: two-hybrid library CCmax;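 further: natural log of median RNA to DNA barcode read ratio; higher means stronger binding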
T1 chain: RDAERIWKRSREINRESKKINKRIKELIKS

zCON9_A = target: T2, zCON9_A; test: two-hybrid library CCmax;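 further: natural log of median RNA to DNA barcode read ratio; higher means stronger binding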
T2 chain: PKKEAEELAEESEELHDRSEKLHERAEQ

P9-AA = target: T3, P9-AA; test: two-hybrid library CCmax; conditions: mean of both orientations;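 further: natural log of median RNA to DNA barcode read ratio; higher means stronger binding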
T3 chain: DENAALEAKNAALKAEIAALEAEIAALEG

P2-AA = target: T4, P2-AA; test: two-hybrid library CCmax;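 further: natural log of median RNA to DNA barcode read ratio; higher means stronger binding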
T4 chain: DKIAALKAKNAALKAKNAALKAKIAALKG

P4-AA = target: T5, P4-AA; test: two-hybrid library CCmax
T5 chain: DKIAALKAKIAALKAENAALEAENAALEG

P3-AA = target: T6, P3-AA; test: two-hybrid library CCmax
T6 chain: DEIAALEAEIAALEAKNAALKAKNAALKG

P8-AA = target: T7, P8-AA; test: two-hybrid library CCmax; conditions: mean of both orientations
T7 chain: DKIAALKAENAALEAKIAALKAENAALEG

zCON9_B = target: T8, zCON9_B; test: two-hybrid library CCmax; conditions: mean of both orientations
T8 chain: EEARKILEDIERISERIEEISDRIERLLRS

P7-AA = target: T9, P7-AA; test: two-hybrid library CCmax
T9 chain: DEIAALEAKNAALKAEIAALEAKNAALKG

P11-AA = target: T10, P11-AA; test: two-hybrid library CCmax; conditions: mean of both orientations
T10 chain: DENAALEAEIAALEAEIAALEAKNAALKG

P12-AA = target: T11, P12-AA; test: two-hybrid library CCmax; conditions: mean of both orientations
T11 chain: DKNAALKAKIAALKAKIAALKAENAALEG

P10-AA = target: T12, P10-AA; test: two-hybrid library CCmax
T12 chain: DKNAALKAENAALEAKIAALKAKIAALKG

4H3628-bN = target: T13, 4H3628-bN; test: two-hybrid library CCNG1
T13 chain: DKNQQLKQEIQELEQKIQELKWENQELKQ

4H3926-bN = target: T14, 4H3926-bN; test: two-hybrid library CCNG1
T14 chain: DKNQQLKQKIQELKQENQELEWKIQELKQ

O9-bP = target: T15, O9-bP; test: two-hybrid library CCNG1
T15 chain: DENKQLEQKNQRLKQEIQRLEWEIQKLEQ

4H3858-bN = target: T16, 4H3858-bN; test: two-hybrid library CCNG1
T16 chain: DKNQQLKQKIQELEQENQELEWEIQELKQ

4H3974-bN = target: T17, 4H3974-bN; test: two-hybrid library CCNG1
T17 chain: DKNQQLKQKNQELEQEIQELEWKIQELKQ

4H591-bN = target: T18, 4H591-bN; test: two-hybrid library CCNG1
T18 chain: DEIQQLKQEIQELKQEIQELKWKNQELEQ

4H906-bN = target: T19, 4H906-bN; test: two-hybrid library CCNG1
T19 chain: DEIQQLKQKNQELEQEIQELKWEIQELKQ

4H850-bN = target: T20, 4H850-bN; test: two-hybrid library CCNG1
T20 chain: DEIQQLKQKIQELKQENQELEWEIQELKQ

4H570-bN = target: T21, 4H570-bN; test: two-hybrid library CCNG1
T21 chain: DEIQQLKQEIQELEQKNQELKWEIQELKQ

4H687-bN = target: T22, 4H687-bN; test: two-hybrid library CCNG1
T22 chain: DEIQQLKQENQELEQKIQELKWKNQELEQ

4H3817-bN = target: T23, 4H3817-bN; test: two-hybrid library CCNG1
T23 chain: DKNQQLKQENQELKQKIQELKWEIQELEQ

4H626-bN = target: T24, 4H626-bN; test: two-hybrid library CCNG1
T24 chain: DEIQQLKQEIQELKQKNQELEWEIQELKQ

4H3613-bN = target: T25, 4H3613-bN; test: two-hybrid library CCNG1
T25 chain: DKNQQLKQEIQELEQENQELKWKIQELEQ

An interaction score (zCON9_D; mean of both orientations) of -2.05, an interaction score (zCON9_A; mean of both orientations) of -1.98 and an interaction score (P9-AA) of -0.716 were found for DKIAALKAKNAALKAKNAALKAKIAALKG [P2-AA] in this work. For the same binder, the interaction score (P2-AA) was -0.878, the interaction score (P4-AA; mean of both orientations) was -0.357 and the interaction score (P3-AA; mean of both orientations) was -1.6. For the same binder, the interaction score (P8-AA) was -1.37, the interaction score (zCON9_B) was 1.28 and the interaction score (P7-AA; mean of both orientations) was -1.47.

An interaction score (zCON9_D; mean of both orientations) of -3.43, an interaction score (zCON9_A) of -1.68 and an interaction score (P9-AA) of -1.18 were found for DKIAALKAKIAALKAENAALEAENAALEG [P4-AA] in this work. It also gave an interaction score (P4-AA) of -2.32, an interaction score (P8-AA) of -1.82 and an interaction score (zCON9_B) of -1.1. For the same binder, the interaction score (P7-AA; mean of both orientations) was -1.41.

An interaction score (zCON9_D; mean of both orientations) of -2.08, an interaction score (zCON9_A) of -1.78 and an interaction score (P9-AA) of -1.38 were found for DEIAALEAEIAALEAKNAALKAKNAALKG [P3-AA] in this work. The interaction score (P4-AA; mean of both orientations) was 2.28, the interaction score (P3-AA) was -1.46 and the interaction score (P8-AA) was -0.983. For the same binder, the interaction score (zCON9_B) was -1.33 and the interaction score (P7-AA; mean of both orientations) was -1.27.

An interaction score (zCON9_D) of -1.97, an interaction score (zCON9_A; mean of both orientations) of -1.58 and an interaction score (P9-AA) of 2.32 were found for DKNAALKAENAALEAKIAALKAKIAALKG [P10-AA] in this work. It also gave an interaction score (P2-AA; mean of both orientations) of -1.38, an interaction score (P11-AA) of 1.43 and an interaction score (P4-AA; mean of both orientations) of -1.35. For the same binder, the interaction score (P3-AA; mean of both orientations) was -0.118, the interaction score (P8-AA) was -1.28 and the interaction score (P12-AA) was -1.23. It also gave an interaction score (zCON9_B) of -0.0248, an interaction score (P10-AA) of -0.869 and an interaction score (P7-AA; mean of both orientations) of -0.0691.

An interaction score (4H3628-bN) of -0.36, an interaction score (4H3926-bN) of -0.307 and an interaction score (O9-bP) of -0.345 were found for DKNQQLKQEIQELEQKIQELKWENQELKQ [4H3628-bN] in this work. It also gave an interaction score (4H3858-bN) of -2.07, an interaction score (4H3974-bN) of -0.134 and an interaction score (4H591-bN) of -0.603. For the same binder, the interaction score (4H906-bN) was 0.069, the interaction score (4H850-bN) was -1.18 and the interaction score (4H570-bN) was -1.33. The interaction score (4H687-bN) was -0.529, the interaction score (4H3817-bN) was -1.03 and the interaction score (4H626-bN) was -2.08.

An interaction score (zCON9_D) of -1.95, an interaction score (zCON9_A) of -1.78 and an interaction score (P9-AA) of -1.14 were found for DEIAALEAKNAALKAEIAALEAKNAALKG [P7-AA] in this work. The interaction score (P8-AA) was 1.87, the interaction score (zCON9_B) was -1.46 and the interaction score (P7-AA) was -1.79.

An interaction score (4H3628-bN) of -1.69, an interaction score (4H3926-bN) of 0.45 and an interaction score (4H3858-bN) of -0.655 were found for DKNQQLKQEIQELEQENQELKWKIQELEQ [4H3613-bN] in this work. It also gave an interaction score (4H3613-bN) of -0.839, an interaction score (4H3974-bN) of -1.53 and an interaction score (4H591-bN) of -0.893. For the same binder, the interaction score (4H906-bN) was -1.78, the interaction score (4H850-bN) was -0.0632 and the interaction score (4H570-bN) was -0.737. For the same binder, the interaction score (4H3817-bN) was -0.783 and the interaction score (4H626-bN) was -1.98.
